± gives the uncertainty stated by the source.
B1: Androgen receptor, residues 557 to 632; numbered along this chain, P10275 (parent)
chain: QKTCLICGDEASGCHYGALTCGSCKVFFKRAAEGKQKYLCASRNDCTIDKFRRKNCPSCRLRKCYEAGMTLGARKL

Variants of: B1
Assay: abundance fitness (aPCA) (normalised: wild type 0, dead -1); higher = more abundant; growth selection in yeast, the domain comes from the species named
Details: Homo sapiens

Variant	abundance fitness
QKTCLICSDEASGCHYGALTCGSCKVFFKRAAEGKQKYLCASRNDCTIDKFRRKNCPSCRLRKCYEAGMTLGARKL [G8S]	-0.165 ± 0.078
QKTCLICHDEASGCHYGALTCGSCKVFFKRAAEGKQKYLCASRNDCTIDKFRRKNCPSCRLRKCYEAGMTLGARKL [G8H]	-0.06 ± 0.17
QKTCLICNDEASGCHYGALTCGSCKVFFKRAAEGKQKYLCASRNDCTIDKFRRKNCPSCRLRKCYEAGMTLGARKL [G8N]	-0.29 ± 0.25
QKTCLICCDEASGCHYGALTCGSCKVFFKRAAEGKQKYLCASRNDCTIDKFRRKNCPSCRLRKCYEAGMTLGARKL [G8C]	-0.319 ± 0.14
QKTCLICLDEASGCHYGALTCGSCKVFFKRAAEGKQKYLCASRNDCTIDKFRRKNCPSCRLRKCYEAGMTLGARKL [G8L]	-0.146 ± 0.06
QKTCLICQDEASGCHYGALTCGSCKVFFKRAAEGKQKYLCASRNDCTIDKFRRKNCPSCRLRKCYEAGMTLGARKL [G8Q]	-0.463 ± 0.17
QKTCLICKDEASGCHYGALTCGSCKVFFKRAAEGKQKYLCASRNDCTIDKFRRKNCPSCRLRKCYEAGMTLGARKL [G8K]	-0.111 ± 0.076
QKTCLICEDEASGCHYGALTCGSCKVFFKRAAEGKQKYLCASRNDCTIDKFRRKNCPSCRLRKCYEAGMTLGARKL [G8E]	-0.045 ± 0.075
QKTCLICTDEASGCHYGALTCGSCKVFFKRAAEGKQKYLCASRNDCTIDKFRRKNCPSCRLRKCYEAGMTLGARKL [G8T]	-0.31 ± 0.11
QKTCLICYDEASGCHYGALTCGSCKVFFKRAAEGKQKYLCASRNDCTIDKFRRKNCPSCRLRKCYEAGMTLGARKL [G8Y]	0.036 ± 0.19
QKTCLICVDEASGCHYGALTCGSCKVFFKRAAEGKQKYLCASRNDCTIDKFRRKNCPSCRLRKCYEAGMTLGARKL [G8V]	-0.868 ± 0.26
QKTCLICRDEASGCHYGALTCGSCKVFFKRAAEGKQKYLCASRNDCTIDKFRRKNCPSCRLRKCYEAGMTLGARKL [G8R]	-0.43 ± 0.07
QKTCLICWDEASGCHYGALTCGSCKVFFKRAAEGKQKYLCASRNDCTIDKFRRKNCPSCRLRKCYEAGMTLGARKL [G8W]	-0.529 ± 0.12
QKTCLICADEASGCHYGALTCGSCKVFFKRAAEGKQKYLCASRNDCTIDKFRRKNCPSCRLRKCYEAGMTLGARKL [G8A]	0.009 ± 0.067
QKTCWICGDEASGCHYGALTCGSCKVFFKRAAEGKQKYLCASRNDCTIDKFRRKNCPSCRLRKCYEAGMTLGARKL [L5W]	-0.122 ± 0.065
QKTCVICGDEASGCHYGALTCGSCKVFFKRAAEGKQKYLCASRNDCTIDKFRRKNCPSCRLRKCYEAGMTLGARKL [L5V]	-0.145 ± 0.044
QKTCSICGDEASGCHYGALTCGSCKVFFKRAAEGKQKYLCASRNDCTIDKFRRKNCPSCRLRKCYEAGMTLGARKL [L5S]	-0.013 ± 0.044
QKTCYICGDEASGCHYGALTCGSCKVFFKRAAEGKQKYLCASRNDCTIDKFRRKNCPSCRLRKCYEAGMTLGARKL [L5Y]	-0.162 ± 0.049

Variant	abundance fitness
QKTCTICGDEASGCHYGALTCGSCKVFFKRAAEGKQKYLCASRNDCTIDKFRRKNCPSCRLRKCYEAGMTLGARKL [L5T]	-0.01 ± 0.05
QKTCRICGDEASGCHYGALTCGSCKVFFKRAAEGKQKYLCASRNDCTIDKFRRKNCPSCRLRKCYEAGMTLGARKL [L5R]	-0.105 ± 0.046
QKTCLICGLEASGCHYGALTCGSCKVFFKRAAEGKQKYLCASRNDCTIDKFRRKNCPSCRLRKCYEAGMTLGARKL [D9L]	-0.626 ± 0.15
QKTCLICGSEASGCHYGALTCGSCKVFFKRAAEGKQKYLCASRNDCTIDKFRRKNCPSCRLRKCYEAGMTLGARKL [D9S]	-0.061 ± 0.064
QKTCLICGKEASGCHYGALTCGSCKVFFKRAAEGKQKYLCASRNDCTIDKFRRKNCPSCRLRKCYEAGMTLGARKL [D9K]	-0.53 ± 0.17
QKTCLICGAEASGCHYGALTCGSCKVFFKRAAEGKQKYLCASRNDCTIDKFRRKNCPSCRLRKCYEAGMTLGARKL [D9A]	-0.089 ± 0.065
QKTCLICGNEASGCHYGALTCGSCKVFFKRAAEGKQKYLCASRNDCTIDKFRRKNCPSCRLRKCYEAGMTLGARKL [D9N]	-0.008 ± 0.1
QKTCLICGGEASGCHYGALTCGSCKVFFKRAAEGKQKYLCASRNDCTIDKFRRKNCPSCRLRKCYEAGMTLGARKL [D9G]	-0.182 ± 0.049
QKTCLICGIEASGCHYGALTCGSCKVFFKRAAEGKQKYLCASRNDCTIDKFRRKNCPSCRLRKCYEAGMTLGARKL [D9I]	-0.109 ± 0.13
QKTCLICGQEASGCHYGALTCGSCKVFFKRAAEGKQKYLCASRNDCTIDKFRRKNCPSCRLRKCYEAGMTLGARKL [D9Q]	-0.071 ± 0.14
QKTCLICGREASGCHYGALTCGSCKVFFKRAAEGKQKYLCASRNDCTIDKFRRKNCPSCRLRKCYEAGMTLGARKL [D9R]	-0.378 ± 0.073
QKTCLICGHEASGCHYGALTCGSCKVFFKRAAEGKQKYLCASRNDCTIDKFRRKNCPSCRLRKCYEAGMTLGARKL [D9H]	0.138 ± 0.35
QKTCLICGCEASGCHYGALTCGSCKVFFKRAAEGKQKYLCASRNDCTIDKFRRKNCPSCRLRKCYEAGMTLGARKL [D9C]	-0.053 ± 0.1
QKTCLICGWEASGCHYGALTCGSCKVFFKRAAEGKQKYLCASRNDCTIDKFRRKNCPSCRLRKCYEAGMTLGARKL [D9W]	-0.289 ± 0.079
QKTCLICGVEASGCHYGALTCGSCKVFFKRAAEGKQKYLCASRNDCTIDKFRRKNCPSCRLRKCYEAGMTLGARKL [D9V]	-0.201 ± 0.062
QKTCLICGEEASGCHYGALTCGSCKVFFKRAAEGKQKYLCASRNDCTIDKFRRKNCPSCRLRKCYEAGMTLGARKL [D9E]	-0.171 ± 0.085
QKTCLICGYEASGCHYGALTCGSCKVFFKRAAEGKQKYLCASRNDCTIDKFRRKNCPSCRLRKCYEAGMTLGARKL [D9Y]	-0.609 ± 0.4
QKTCLICGFEASGCHYGALTCGSCKVFFKRAAEGKQKYLCASRNDCTIDKFRRKNCPSCRLRKCYEAGMTLGARKL [D9F]	-0.562 ± 0.21

From the Human Domainome abundance scans (Beltran et al. 2025)
